Results reported in article PMC8458281, “Computational modeling and experimental validation of the EPI-X4/CXCR4 complex allows rational design of small peptide antagonists” (Communications Biology, 2021).
Each block holds one molecule with its values, some of them ahead of it. No end group written: not given here.

What was measured:
CXCR4 L41A [1] = experiment: 12G5 antibody competition, 293T cells transfected with CXCR4 L41A; assay type: binding, human; conditions: IC50 on CXCR4 L41A relative to wt
Description: (§1) Fig. 4 The interactions of EPI-X4 and the EPI-X4 derivatives WSC02 and JM#21 with point-mutated CXCR4 were assessed by an antibody competition assay. Amino acid substitutions were introduced in the sequence of CXCR4 by site-directed mutagenesis, cloned into an IRES-eGFP expression vector, and transfected into 293 T cells. Afterward, cells were incubated with serially diluted EPI-X4 (a, b), WSC02 (c, d), or JM#21 (e, f) in presence of a constant concentration of CXCR4 specific antibody (clone 12G5). After 2 h, bound antibody was analyzed by flow cytometry. a, c, e) Representative dose-dependent replacement of 12G5 antibody by peptides. b, d, f) IC50 values were calculated by nonlinear regression. Shown are data derived from at least three individual experiments ± SEM. IC50 values were set to 1000 µM (EPI-X4 and WSC02) or 100 µM (JM#21) if the value exceeds the maximally used concentration. *p ≤ 0.05, ***p ≤ 0.001 (one-way ANOVA for comparison with wt). For IC50 values see Table 1. For all binding curves see also Fig. S8.
(§2) Mutated CXCR4 constructs were transfected into 293 T cells that have a very low endogenous expression level of wild-type CXCR4. Transfected cells were then analyzed for CXCR4 surface expression (Fig. S5a) and EPI-X4 binding using a flow cytometry-based antibody competition assay (Fig. S5b, c)[33]. […]

CXCR4 D97E [2] = experiment: 12G5 antibody competition, 293T cells transfected with CXCR4 D97E; assay type: binding, human; conditions: IC50 on CXCR4 D97E relative to wt
Description: as §1, §2

CXCR4 D97S [3] = experiment: 12G5 antibody competition, 293T cells transfected with CXCR4 D97S; assay type: binding, human; conditions: IC50 on CXCR4 D97S relative to wt
Description: as §1, §2

CXCR4 V112A [4] = experiment: 12G5 antibody competition, 293T cells transfected with CXCR4 V112A; assay type: binding, human; conditions: IC50 on CXCR4 V112A relative to wt
Description: as §1, §2

CXCR4 D187E [5] = experiment: 12G5 antibody competition, 293T cells transfected with CXCR4 D187E; assay type: binding, human; conditions: IC50 on CXCR4 D187E relative to wt
Description: as §1, §2

CXCR4 D262A [6] = experiment: 12G5 antibody competition, 293T cells transfected with CXCR4 D262A; assay type: binding, human; conditions: IC50 on CXCR4 D262A relative to wt
Description: as §1, §2

CXCR4 E277A [7] = experiment: 12G5 antibody competition, 293T cells transfected with CXCR4 E277A; assay type: binding, human; conditions: IC50 on CXCR4 E277A relative to wt
Description: as §1, §2

CXCR4 D97E + V112A [8] = experiment: 12G5 antibody competition, 293T cells transfected with CXCR4 D97E + V112A; assay type: binding, human; conditions: IC50 on CXCR4 D97E + V112A relative to wt
Description: as §1, §2

CXCR4 D97E + V112L [9] = experiment: 12G5 antibody competition, 293T cells transfected with CXCR4 D97E + V112L; assay type: binding, human; conditions: IC50 on CXCR4 D97E + V112L relative to wt
Description: as §1, §2

CXCR4 V112A + L41A [10] = experiment: 12G5 antibody competition, 293T cells transfected with CXCR4 V112A + L41A; assay type: binding, human; conditions: IC50 on CXCR4 V112A + L41A relative to wt
Description: as §1, §2

[11] = tested on: CXCR4 D97E + V112A + L41A; experiment: 12G5 antibody competition, 293T cells transfected with CXCR4 D97E + V112A + L41A; assay type: binding, human; conditions: IC50 on CXCR4 D97E + V112A + L41A relative to wt
Description: as §1, §2

[12] = target: T1, C-X-C motif chemokine receptor 4 (CXCR4) on SupT1 cells (human (endogenous in SupT1), UniProt P61073 1-352); experiment: flow cytometry on cells; 12G5 antibody competition on SupT1 cells; peptides in PBS with APC-conjugated 12G5 at a concentration close to its EC50, 4 °C, 2 h; MFI normalized to PBS control; IC50 by nonlinear regression; conditions: one partner purified
T1 construct: CXCR4 as expressed on SupT1 cells; source: endogenous, on SupT1 cells

[13] = target: CXCR4 D97E + V112A + L41A (human, UniProt P61073-1 1-352, L41A | D97E | V112A); experiment: FACS
CXCR4 D97S [14] = target: CXCR4 D97S (human, UniProt P61073-1 1-352, D97S); experiment: FACS
CXCR4 D97T = CXCR4 D97T (human, UniProt P61073-1 1-352, D97T); experiment: FACS
CXCR4 D97Q = CXCR4 D97Q (human, UniProt P61073-1 1-352, D97Q); experiment: FACS
CXCR4 V112A [15] = target: CXCR4 V112A (human, UniProt P61073-1 1-352, V112A); experiment: FACS
CXCR4 D97E [16] = target: CXCR4 D97E (human, UniProt P61073-1 1-352, D97E); experiment: FACS
Sequence of CXCR4 D97E (human, UniProt P61073-1 1-352, D97E) (P61073 whole entry D97E): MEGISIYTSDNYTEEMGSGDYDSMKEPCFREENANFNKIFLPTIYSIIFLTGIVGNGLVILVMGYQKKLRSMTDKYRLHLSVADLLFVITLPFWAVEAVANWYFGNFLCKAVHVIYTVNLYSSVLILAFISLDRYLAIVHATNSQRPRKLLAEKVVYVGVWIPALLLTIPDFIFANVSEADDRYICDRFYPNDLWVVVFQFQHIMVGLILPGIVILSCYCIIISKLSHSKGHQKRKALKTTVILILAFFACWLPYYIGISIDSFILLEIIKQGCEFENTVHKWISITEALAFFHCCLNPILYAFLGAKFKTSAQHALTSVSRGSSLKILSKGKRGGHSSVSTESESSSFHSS

CXCR4 E288A = CXCR4 E288A (human, UniProt P61073-1 1-352, E288 to Ala); experiment: FACS
[17] = target: T2, CXCR4 wt (transfected 293T cells) (human, UniProt P61073-1 1-352); experiment: FACS
T2 chain: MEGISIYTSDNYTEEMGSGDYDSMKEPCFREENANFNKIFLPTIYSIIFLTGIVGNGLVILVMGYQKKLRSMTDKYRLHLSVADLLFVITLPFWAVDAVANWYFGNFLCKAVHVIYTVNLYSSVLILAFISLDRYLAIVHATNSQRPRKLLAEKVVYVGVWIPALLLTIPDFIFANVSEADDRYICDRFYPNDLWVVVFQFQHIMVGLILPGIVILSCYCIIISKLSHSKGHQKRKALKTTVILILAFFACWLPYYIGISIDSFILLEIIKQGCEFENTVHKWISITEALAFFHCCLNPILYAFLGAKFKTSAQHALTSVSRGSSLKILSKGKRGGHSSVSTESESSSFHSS

CXCR4 D97E + V112L [18] = target: CXCR4 D97E + V112L (human, UniProt P61073-1 1-352, D97E | V112L); experiment: FACS
Sequence of CXCR4 D97E + V112L (human, UniProt P61073-1 1-352, D97E | V112L) (P61073 whole entry D97E/V112L): as the sequence (P61073 whole entry D97E) above, with V112L counted along it

CXCR4 V112L = CXCR4 V112L (human, UniProt P61073-1 1-352, V112L); experiment: FACS
Sequence of CXCR4 V112L (P61073 whole entry V112L): as the sequence (P61073 whole entry D97E) above, with E97D, V112L counted along it

CXCR4 D187E [19] = target: CXCR4 D187E (human, UniProt P61073-1 1-352, D187E); experiment: FACS
Sequence of CXCR4 D187E (human, UniProt P61073-1 1-352, D187E) (P61073 whole entry D187E): as the sequence (P61073 whole entry D97E) above, with E97D, D187E counted along it

CXCR4 E288D = CXCR4 E288D (human, UniProt P61073-1 1-352, E288 to Asp); experiment: FACS
Sequence of CXCR4 E288D (P61073 whole entry E288D): as the sequence (P61073 whole entry D97E) above, with E97D, E288D counted along it

CXCR4 L41A [20] = target: CXCR4 L41A (human, UniProt P61073-1 1-352, L41A); experiment: FACS
Sequence of CXCR4 L41A (human, UniProt P61073-1 1-352, L41A) (P61073 whole entry L41A): as the sequence (P61073 whole entry D97E) above, with L41A, E97D counted along it

CXCR4 E277A [21] = target: CXCR4 E277A (human, UniProt P61073-1 1-352, E277A); experiment: FACS
Sequence of CXCR4 E277A (human, UniProt P61073-1 1-352, E277A) (P61073 whole entry E277A): as the sequence (P61073 whole entry D97E) above, with E97D, E277A counted along it

CXCR4 D97E + V112A [22] = target: CXCR4 D97E + V112A (human, UniProt P61073-1 1-352, D97E | V112A); experiment: FACS
Sequence of CXCR4 D97E + V112A (human, UniProt P61073-1 1-352, D97E | V112A) (P61073 whole entry D97E/V112A): as the sequence (P61073 whole entry D97E) above, with V112A counted along it

CXCR4 D262A [23] = target: CXCR4 D262A (human, UniProt P61073-1 1-352, D262A); experiment: FACS
CXCR4 D97N = CXCR4 D97N (human, UniProt P61073-1 1-352, D97N); experiment: FACS
CXCR4 V112A + L41A [24] = target: CXCR4 V112A + L41A (human, UniProt P61073-1 1-352, L41A | V112A); experiment: FACS
Sequence of CXCR4 V112A + L41A (human, UniProt P61073-1 1-352, L41A | V112A) (P61073 whole entry L41A/V112A): as the sequence (P61073 whole entry D97E) above, with L41A, E97D, V112A counted along it

Molecule: LVRYTKKVPQVSTPTL [EPI-X4, 16-mer fragment of albumin, endogenous antagonist and inverse agonist of CXCR4]
Fold change (CXCR4 L41A [1]): 19
Fold change (CXCR4 D97E [2]): 18
Fold change (CXCR4 D97S [3]): 112
Fold change (CXCR4 V112A [4]): 1.6
Fold change (CXCR4 D187E [5]): 1.2
Fold change (CXCR4 D262A [6]): 0.7
Fold change (CXCR4 E277A [7]): 1.3
Fold change (CXCR4 D97E + V112A [8]): 2.6
Fold change (CXCR4 D97E + V112L [9]): 32
Fold change (CXCR4 V112A + L41A [10]): 11
Fold change [11]: 7

B3: EPI-X4 JM#21 (peptide)
peptide: ILRWSRKLPCVS
notes: source: synthetic peptide (Fmoc solid-phase synthesis, HPLC-purified)
IC50 [13]: 400 nM
IC50 (CXCR4 D97S [14]): 5390 nM
IC50 (CXCR4 D97T): 3830 nM
IC50 (CXCR4 D97Q): 8050 nM
IC50 (CXCR4 V112A [15]): 3450 nM
IC50 (CXCR4 D97E [16]): 1910 nM
IC50 (CXCR4 E288A): 86400 nM
IC50 [17]: 660 nM
IC50 (CXCR4 D97E + V112L [18]): 370 nM
IC50 (CXCR4 V112L): 410 nM
IC50 (CXCR4 D187E [19]): 310 nM
IC50 (CXCR4 E288D): 14200 nM
IC50 (CXCR4 L41A [20]): 720 nM
IC50 (CXCR4 E277A [21]): 280 nM
IC50 (CXCR4 D97E + V112A [22]): 470 nM
IC50 (CXCR4 D262A [23]): 230 nM
IC50 (CXCR4 D97N): 11000 nM
IC50 [12]: 145 nM

B4: WSC02 (peptide)
peptide: IVRWSKKVPCVS
notes: also called EPI-X4 WSC02; source: synthetic peptide (Fmoc solid-phase synthesis, HPLC-purified)
IC50 [13]: 5770 nM
IC50 (CXCR4 D97S [14]): 20400 nM
IC50 (CXCR4 D97T): 35400 nM
IC50 (CXCR4 D97Q): > 100000 nM
IC50 (CXCR4 V112A [15]): 670 nM
IC50 (CXCR4 D97E [16]): 9540 nM
IC50 (CXCR4 E288A): > 100000 nM
IC50 [17]: 1130 nM
IC50 (CXCR4 D97E + V112L [18]): 2000 nM
IC50 (CXCR4 V112L): 420 nM
IC50 (CXCR4 D187E [19]): 490 nM
IC50 (CXCR4 E288D): 83200 nM
IC50 (CXCR4 L41A [20]): 1710 nM
IC50 (CXCR4 V112A + L41A [24]): 4700 nM
IC50 (CXCR4 E277A [21]): 770 nM
IC50 (CXCR4 D97E + V112A [22]): 1690 nM
IC50 (CXCR4 D262A [23]): 520 nM
IC50 (CXCR4 D97N): 527000 nM
IC50 [12]: 539 nM

B7: JM#21 408–416-NH2 (peptide)
peptide: ILRWSRKLP-NH2
notes: JM#21 truncated by three residues; source: synthetic peptide (Fmoc solid-phase synthesis, HPLC-purified)
IC50 [12]: 262 nM

Second part, the molecule after the results:

IC50 [12]: 1030 nM
B1: EPI-X4 408–416-NH2 (peptide)
peptide: LVRYTKKVP-NH2
notes: as for B3

IC50 [12]: 954 nM
B2: EPI-X4 408–414-NH2 (peptide)
peptide: LVRYTKK-NH2
notes: as for B3

IC50 [12]: 157 nM
B5: EPI-X4 JM#21 408–414-NH2 (peptide)
peptide: ILRWSRK-NH2
notes: JM#21 truncated by five residues; source: synthetic peptide (Fmoc solid-phase synthesis, HPLC-purified)

IC50 [12]: 469 nM
B6: WSC02 408–414-NH2 (peptide)
peptide: IVRWSKK-NH2
notes: WSC02 truncated by five residues; source: synthetic peptide (Fmoc solid-phase synthesis, HPLC-purified)

IC50 [12]: 312 nM
B8: WSC02 408–416-NH2 (peptide)
peptide: IVRWSKKVP-NH2
notes: WSC02 truncated by three residues; source: synthetic peptide (Fmoc solid-phase synthesis, HPLC-purified)
